Experimental data as given in the RNAGym collection of RNA variant scans (doi:10.7554/elife.90254).

B1: LINE1-mini (parent)
chain: GGCAGAGCUCAACACAGCGUGGCAAAGUGGCUGUGGCUAGACUGCC

Variants of: B1
Experiment: self-cleavage, relative activity (ratio to wild type); higher = more cleavage; in vitro, sequencing; the parent is a self-cleaving ribozyme
Variant GGCAGAGCUCAUCAAAGCGUGGCAAAGUGGCUGUGGCUAGACUGCC [A12U C15A] has a self-cleavage of 0.09.
For GGCAGAGCUCAUCAGAGCGUGGCAAAGUGGCUGUGGCUAGACUGCC [A12U C15G], the self-cleavage was 0.06.
Variant GGCAGAGCUCAUCAUAGCGUGGCAAAGUGGCUGUGGCUAGACUGCC [A12U C15U] has a self-cleavage of 0.1.
GGCAGAGCUCAUCACAGCGUGGCAAAGUGGCUGUGGAUAGACUGCC [A12U C37A] showed a self-cleavage of 0.05.
Work on GGCAGAGCUCAUCACAGCGUGGCAAAGUGGCUGUGGUUAGACUGCC [A12U C37U] yielded a self-cleavage of 0.02.
GGCAGAGCUCAUCACAGCGUGGCAAAGUGGCUGUGGGUAGACUGCC [A12U C37G] showed a self-cleavage of 0.06.
In the case of GGCAGAGCUCAUCACAGCGUGGCAAAGUGGCUGUGACUAGACUGCC [A12U G36A], the self-cleavage is reported as 0.04.
GGCAGAGCUCAUCACAGCGUGGCAAAGUGGCUGUGCCUAGACUGCC [A12U G36C] gave a self-cleavage of 0.04.
GGCAGAGCUCAUCACAGCGUGGCAAAGUGGCUGUGUCUAGACUGCC [A12U G36U] gave a self-cleavage of 0.16.
GGCAGAGCUCAUGACAGCGUGGCAAAGUGGCUGUGGCUAGACUGCC [A12U C13G] gave a self-cleavage of 0.48.
For GGCAGAGCUCAUAACAGCGUGGCAAAGUGGCUGUGGCUAGACUGCC [A12U C13A], the self-cleavage was 0.21.
Variant GGCAGAGCUCAUUACAGCGUGGCAAAGUGGCUGUGGCUAGACUGCC [A12U C13U] has a self-cleavage of 0.14.
In the case of GGCAGAGCUCAGCACAGCGUGGCAAAGUGGCUGUGGCUAGACGGCC [A12G U43G], the self-cleavage is reported as 0.1.
Variant GGCAGAGCUCAGCACAGCGUGGCAAAGUGGCUGUGGCUAGACCGCC [A12G U43C] has a self-cleavage of 0.03.
In the case of GGCAGAGCUCAGCACAGCGUGGCAAAGUGGCUGUGGCUAGACAGCC [A12G U43A], the self-cleavage is reported as 0.12.
Variant GGCAGAGCUCAUCACAGCGUGGCAUAGUGGCUGUGGCUAGACUGCC [A12U A25U] has a self-cleavage of 0.25.
Work on GGCAGAGCUCAUCACAGCGUGGCAGAGUGGCUGUGGCUAGACUGCC [A12U A25G] yielded a self-cleavage of 0.4.
With GGCAGAGCUCAUCACAGCGUGGCACAGUGGCUGUGGCUAGACUGCC [A12U A25C] the self-cleavage was 0.22.
For GGCAGAGCUCAUCACAGCGUGGCAAAGUGGCUGUGGCUAGAUUGCC [A12U C42U], the self-cleavage was 0.13.
In the case of GGCAGAGCUCAUCACAGCGUGGCAAAGUGGCUGUGGCUAGAAUGCC [A12U C42A], the self-cleavage is reported as 0.06.
GGCAGAGCUCAUCACAGCGUGGCAAAGUGGCUGUGGCUAGAGUGCC [A12U C42G] showed a self-cleavage of 0.04.
Work on GGCAGAGCUCAUCACAGCGUGGCUAAGUGGCUGUGGCUAGACUGCC [A12U A24U] yielded a self-cleavage of 0.31.
With GGCAGAGCUCAUCACAGCGUGGCCAAGUGGCUGUGGCUAGACUGCC [A12U A24C] the self-cleavage was 0.24.
GGCAGAGCUCAUCACAGCGUGGCGAAGUGGCUGUGGCUAGACUGCC [A12U A24G] gave a self-cleavage of 0.39.
In the case of GGCAGAGCUCAUCACACCGUGGCAAAGUGGCUGUGGCUAGACUGCC [A12U G17C], the self-cleavage is reported as 0.25.
Work on GGCAGAGCUCAUCACAACGUGGCAAAGUGGCUGUGGCUAGACUGCC [A12U G17A] yielded a self-cleavage of 0.05.
GGCAGAGCUCAUCACAUCGUGGCAAAGUGGCUGUGGCUAGACUGCC [A12U G17U] gave a self-cleavage of 0.09.
Work on GGCAGAGCUCAUCACAGCGUGGCAAAGUAGCUGUGGCUAGACUGCC [A12U G29A] yielded a self-cleavage of 0.31.
In the case of GGCAGAGCUCAUCACAGCGUGGCAAAGUUGCUGUGGCUAGACUGCC [A12U G29U], the self-cleavage is reported as 0.37.
Work on GGCAGAGCUCAUCACAGCGUGGCAAAGUCGCUGUGGCUAGACUGCC [A12U G29C] yielded a self-cleavage of 0.05.
For GGCAGAGCUCAUCGCAGCGUGGCAAAGUGGCUGUGGCUAGACUGCC [A12U A14G], the self-cleavage was 0.18.
GGCAGAGCUCAUCCCAGCGUGGCAAAGUGGCUGUGGCUAGACUGCC [A12U A14C] showed a self-cleavage of 0.05.
In the case of GGCAGAGCUCAUCUCAGCGUGGCAAAGUGGCUGUGGCUAGACUGCC [A12U A14U], the self-cleavage is reported as 0.18.
With GGCAGAGCUCAGCACAGCGUGGCAAAGUGGCGGUGGCUAGACUGCC [A12G U32G] the self-cleavage was 0.49.
GGCAGAGCUCAUCACAGCGUGACAAAGUGGCUGUGGCUAGACUGCC [A12U G22A] gave a self-cleavage of 0.4.
Work on GGCAGAGCUCAUCACAGCGUGCCAAAGUGGCUGUGGCUAGACUGCC [A12U G22C] yielded a self-cleavage of 0.26.
Variant GGCAGAGCUCAUCACAGCGUGUCAAAGUGGCUGUGGCUAGACUGCC [A12U G22U] has a self-cleavage of 0.29.
For GGCAGAGCUCAUCACAGCGUGGCAAAGUGGCUAUGGCUAGACUGCC [A12U G33A], the self-cleavage was 0.05.
Work on GGCAGAGCUCAUCACAGCGUGGCAAAGUGGCUUUGGCUAGACUGCC [A12U G33U] yielded a self-cleavage of 0.04.
In the case of GGCAGAGCUCAUCACAGCGUGGCAAAGUGGCUCUGGCUAGACUGCC [A12U G33C], the self-cleavage is reported as 0.03.
In the case of GGCAGAGCUCAUCACAGCGUGGCAAAGUGGCUGUGGCUCGACUGCC [A12U A39C], the self-cleavage is reported as 0.11.
For GGCAGAGCUCAUCACAGCGUGGCAAAGUGGCUGUGGCUGGACUGCC [A12U A39G], the self-cleavage was 0.08.
For GGCAGAGCUCAUCACAGCGUGGCAAAGUGGCUGUGGCUUGACUGCC [A12U A39U], the self-cleavage was 0.16.
Variant GGCAGAGCUCAUCACAGCGUGGCAAAGUGGCUGUGGCUAGACUGCU [A12U C46U] has a self-cleavage of 0.27.
In the case of GGCAGAGCUCAUCACAGCGUGGCAAAGUGGCUGUGGCUAGACUGCA [A12U C46A], the self-cleavage is reported as 0.27.
For GGCAGAGCUCAUCACAGCGUGGCAAAGUGGCUGUGGCUAGACUGCG [A12U C46G], the self-cleavage was 0.45.
GGCAGAGCUCAUCACAGCGUGGCAAAGUGGCUGCGGCUAGACUGCC [A12U U34C] showed a self-cleavage of 0.03.
For GGCAGAGCUCAUCACAGCGUGGCAAAGUGGCUGGGGCUAGACUGCC [A12U U34G], the self-cleavage was 0.04.
Variant GGCAGAGCUCAUCACAGCGUGGCAAAGUGGCUGAGGCUAGACUGCC [A12U U34A] has a self-cleavage of 0.03.
GGCAGAGCUCAUCACAGCGUGGCAAAGUGGCUGUGGCUAGUCUGCC [A12U A41U] gave a self-cleavage of 0.18.
Variant GGCAGAGCUCAUCACAGCGUGGCAAAGUGGCUGUGGCUAGCCUGCC [A12U A41C] has a self-cleavage of 0.04.
With GGCAGAGCUCAUCACAGCGUGGCAAAGUGGCUGUGGCUAGGCUGCC [A12U A41G] the self-cleavage was 0.09.
Work on GGCAGAGCUCAUCACAGCGUGGCAAAGUGGCCGUGGCUAGACUGCC [A12U U32C] yielded a self-cleavage of 0.07.
With GGCAGAGCUCAUCACAGCGUGGCAAAGUGGCAGUGGCUAGACUGCC [A12U U32A] the self-cleavage was 0.04.
For GGCAGAGCUCAUCACAGCGUGGCAAAGUGGCGGUGGCUAGACUGCC [A12U U32G], the self-cleavage was 0.08.
Work on GGCAGAGCUCAGCACAGCGUGGCAAAGUGGCUGUGGCGAGACUGCC [A12G U38G] yielded a self-cleavage of 0.02.
